Source: patent US20160130302A1
Positions of bridges follow the written chain, without caps; N, C: chain ends. Chains are numbered I, II in the order given. No end group written: not given here.

Columns and labels:
[1] = test system: T1, ψPDK peptide (ALSTER), non-TAT conjugated
T1 sequence: ALSTER

[2] = test system: ψPDK-Cs-sC-TAT (ψPDK linked to TAT47-57 by a disulfide bond)
[3] = biological target: rat δPKC (endogenous, in perfused rat hearts) (rat) (UniProt P09215); assay: cell-based or functional assay
Chain of rat δPKC (endogenous, in perfused rat hearts) (rat) (P09215 whole entry, stated change not applied, the tested form may be a part): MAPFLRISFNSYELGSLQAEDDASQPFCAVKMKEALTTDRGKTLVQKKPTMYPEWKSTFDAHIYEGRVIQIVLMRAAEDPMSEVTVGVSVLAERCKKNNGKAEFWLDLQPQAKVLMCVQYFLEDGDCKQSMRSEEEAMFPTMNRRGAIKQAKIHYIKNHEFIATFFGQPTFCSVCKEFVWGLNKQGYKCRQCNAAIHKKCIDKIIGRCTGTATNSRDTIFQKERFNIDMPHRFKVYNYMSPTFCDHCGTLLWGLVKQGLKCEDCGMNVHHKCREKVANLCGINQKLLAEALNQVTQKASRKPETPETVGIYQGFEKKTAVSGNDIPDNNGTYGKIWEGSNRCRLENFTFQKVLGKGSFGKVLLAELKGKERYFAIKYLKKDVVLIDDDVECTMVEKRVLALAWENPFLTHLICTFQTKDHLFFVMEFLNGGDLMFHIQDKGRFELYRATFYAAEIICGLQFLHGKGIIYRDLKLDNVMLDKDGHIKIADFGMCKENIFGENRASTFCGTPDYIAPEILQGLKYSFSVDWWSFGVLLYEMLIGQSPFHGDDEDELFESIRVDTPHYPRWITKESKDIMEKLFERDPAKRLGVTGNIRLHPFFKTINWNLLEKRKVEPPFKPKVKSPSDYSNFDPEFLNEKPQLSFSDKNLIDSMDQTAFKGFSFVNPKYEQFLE

[4] = biological target: rat δPKC (endogenous, in perfused rat hearts) (rat), P09215; assay: cell-based or functional assay
Chain of rat δPKC (endogenous, in perfused rat hearts) (rat), P09215 (P09215 whole entry, stated change not applied, the tested form may be a part): as above

Molecule	CPK (u/L) [3]	p-JNK/total JNK [3]	also measured
human recombinant δPKC (Invitrogen)	–	–	in vitro phosphorylation of Drp1 by δPKC [1]: ψPDK did not affect Drp1 phosphorylation; δPKC phosphorylation of PDK (in vitro kinase assay) [1]: ψPDK inhibited δPKC phosphorylation of PDK by ˜30%
mouse δPKC (endogenous, in fibroblasts from wild-type mice)	–	–	MARCKS phosphorylation in wild-type fibroblasts [2]: increased MARCKS phosphorylation relative to the control peptide
p192 (AASTER), TAT-conjugated (peptide)	1270 u/L	0.7	–
p193 (ALATER), TAT-conjugated (peptide)	1160 u/L	0.7	–
p194 (ALSAER), TAT-conjugated (peptide)	886 u/L	0.6	–
p195 (ALSTAR), TAT-conjugated (peptide)	913 u/L	0.7	–
p196 (ALSTEA), TAT-conjugated (peptide)	926 u/L	0.9	–
p197 (ALST(p)ER), TAT-conjugated (peptide)	803 u/L	0.7	–
p198 (ALS(p)TER), TAT-conjugated (peptide)	1170 u/L	0.9	–
p199 (ALS(p)T(p)ER), TAT-conjugated (peptide)	842 u/L	0.6	–
rat δPKC (endogenous, in perfused rat hearts)	–	–	I/R-induced MARCKS phosphorylation in hearts [2]: an increase in I/R-induced MARCKS phosphorylation was observed in the presence of ψPDK, as compared with control peptide; phosphorylation of PDK2 and of the E1 subunit of PDH after I/R (2-D IEF) [2]: the phosphorylation of those two enzymes (shown by a shift to acidic pH by 2-D IEF analysis) did not occur in the presence of either ψPDK or in the presence of δV1-1
ψPDK-Cs-sC-TAT (ψPDK linked to TAT47-57 by a disulfide bond) (disulfide I:7-II:12; N-terminus assumed; SMILES CC(C)C[C@H](NC(=O)[C@H](C)N)C(=O)N[C@@H](CO)C(=O)N[C@H](C(=O)N[C@@H](CCC(=O)O)C(=O)N[C@@H](CCCNC(=N)N)C(=O)N[C@@H](CSSC[C@H](NC(=O)[C@H](CCCNC(=N)N)NC(=O)[C@H](CCCNC(=N)N)NC(=O)[C@H](CCCNC(=N)N)NC(=O)[C@H](CCC(N)=O)NC(=O)[C@H](CCCNC(=N)N)NC(=O)[C@H](CCCNC(=N)N)NC(=O)[C@H](CCCCN)NC(=O)[C@H](CCCCN)NC(=O)[C@H](CCCNC(=N)N)NC(=O)CNC(=O)[C@@H](N)Cc1ccc(O)cc1)C(N)=O)C(N)=O)[C@@H](C)O) peptide: ALSTERC-NH2 YGRKKRRQRRRC-NH2	–	–	CPK (u/L) [4]: 335 u/L; p-JNK/total JNK [4]: 0.4; δPKC association with the mitochondria after I/R [4]: 2 fold
